Experimental data as given in patent US20250215403A1, “Compositions and Methods for Cardiac Tissue Regeneration” (Temple University - Of The Commonwealth System Of Higher …, priority 2022, published 2025).

Key:
cardiomyocytes (CM) = test: Mouse MI model: immunostaining of heart sections for CM cell cycle markers (ki67, pH3, BrdU, Aurora B); type: in vivo; details: seven days post-MI
Experimental: All surgical and experimental procedures with mice were performed in accordance with protocols approved by Institutional Animal Care and Use Committees at Temple University Animal Care and Use Committee (IACUC). C57BL6 or CM-specific MADM mice (8-12-weeks-old) were anesthetized with isoflurane. MI was induced by permanent ligation of the LAD, as previously described (Garikipati, V. N. S., et al., 2019, Nature Communications, 10:4317). Briefly, the left thoracic region was shaved and sterilized. After intubation, the heart was exposed through a left thoracotomy. A suture was placed to ligate the LAD. The thoracotomy and skin were sutured closed in layers. Excess air was removed from the thoracic cavity, and the mouse was removed from ventilation when normal breathing was established. In order to determine the effect of modRNA on cardiovascular outcome after MI, modRNAs (100 μg/heart) were injected into the infarct zone immediately after LAD ligation (Magadum A., et al., Circulation. 2020, 141 (15): 1249-1265). For examination of heart histology, hearts were collected at the end of each study, quickly washed in PBS, weighed, and fixed in 4% PFA for cryo-sectioning and immunostainings. In all experiments, the surgeon was blinded to the treatment group. For assessment of heart histology, hearts were collected at the end of each study. The hearts were excised, briefly washed in PBS, perfused with perfusion buffer, weighed and fixed in 4% PFA at 4° C. overnight. The heart blocks were transverse sectioned at 6-8 μm using cryostat. The heart sections were further processed for histological evaluation using immunostaining (see below) or histological scar staining using Masson's trichrome staining kit (Sigma) according to standard procedures. Measuring the ratio of heart weight to body weight was done using a scale. This ratio was calculated as the heart tissue weight relative to the mouse total body weight in grams (g).
Mice were injected with AAV9-GFP or AAV9-YAP1-shRNA (GeneCopoeia) through retro-orbital injection 7 days before LAD. A total of 5×10^11 viral genomes (50 μl total volume delivered) was injected per mouse. The level of YAP1 inhibition was determined at the mRNA level by qPCR 14 days post injection.
Mice hearts were harvested, weighed, and fixed in 4% PFA/PBS overnight on shaker and then washed with PBS for 1 hour and incubated in 30% sucrose/PBS at 4° C. for 12-18 hours. Hearts were then fixed in OCT and frozen at −80° C. (Magadum A., et al., Circulation. 2020, 141 (15): 1249-1265). Transverse heart sections (6-8 μm) were made using a cryostat. Frozen sections were rehydrated in PBS for 5-10 min followed by permeabilization with PBS with 0.1% Triton™ X100 (PBST) for 7-8 min. Heart sections were then treated with 3% H2O2 for 5 min and washed (3×5 min) with PBST. The samples were then blocked with PBS+10% Donkey normal serum+0.1% Triton™ X100 (PBSST) for 1 hour at room temperature. Primary antibodies (see complete list of primary antibodies used for this Example in Table 2 below) diluted in PBST were added and incubated overnight at 4° C. Slides were washed with PBST (3×5 min) followed by incubation with a secondary antibody (Invitrogen, 1:200) diluted in PBST for 90-120 min at room temperature. The samples were further washed with PBST (3×5 min) and stained with DAPI or Hoechst 33342 (1 μg/ml) diluted in PBST for 7 min. After being washed with PBST (3×7 min) and tap water (1×5 min) slides were mounted with mounting medium (VECTASHIELD®) for imaging (Magadum A., et al., Circulation. 2020, 141 (15): 1249-1265). Stained slides were stored at 4° C. All staining was performed on 4-8 hearts/group, with 2-3 sections/heart. For immunostaining with wheat germ agglutinin (WGA) for CM size quantification, images were captured at 40× magnification, and ImageJ was used to determine the area of each cell. […]

[1] = Long-term survival of mice post-MI; type: in vivo, mouse; details: Luc vs PSAT1 modRNA
Experimental: All animal procedures were performed under protocols approved by the Temple University Animal Care and Use Committee. Male and female C57BL6 mice were used. Different modRNAs (100 μg/heart) were injected directly into the myocardium in open chest surgery. Three to ten animals used for each experiment. For mice survival, C57BL6 mice (10-12-weeks-old) treated with Luc or PSAT1 modRNAs (n=10) post induction of MI and were followed for the indicated time. Deaths were monitored and documented over time. Tamoxifen-inducible CM-restricted MADM mice (α-MHC-MADM mice) mice were generated by crossing MADM mice (Jackson laboratory) to […].^Tg(Myh6-cre/Esr1*) 1Jmk/J (Cat no. 005657) mice to get α-MHC-MADM mice (Yuko, A. E., et al., 2021, Redox Biology, 47:102162). Tamoxifen (Sigma-Aldrich) was dissolved in sesame oil at 10 mg/ml as stock solution. To induce Cre activation, tamoxifen was administered to mice by intraperitoneal (IP) injection five times (48 h interval between administrations) at 40 mg/kg body weight for adult mice (Yuko, A. E., et al., 2021, Redox Biology, 47:102162). The tissues were harvested at mentioned time for analysis.

B1: PSAT1 modRNA: modified mRNA with N1-methylpseudouridine, transcribed in vitro, encoding phosphoserine aminotransferase 1 (ORF SEQ ID NO: 1, RNA SEQ ID NO: 2) (nucleic acid)
chain: AUGGAAGCCACCAAGCAAGUGGUUAACUUUGGGCCCGGGCCUGCCAAGCUGCCACACUCGGUAUUGUUGGAGAUCCAGAAGCAGCUACUAGACUACAGAGGACUCGGCAUCAGUGUGCUCGAAAUGAGUCACAGGUCAUCAGAUUUUGCCAAGAUUAUUGGCAAUACAGAGAAUCUUGUGAGGGAAUUGCUAGCUGUUCCCAACAACUACAAGGUGAUCUUUGUACAAGGAGGUGGGUCUGGCCAGUUCAGUGCUGUCCCCUUAAAUCUGAUUGGCCUGAAAGCUGGAAGGAGUGCUGACUACGUGGUGACCGGAGCUUGGUCAGCUAAGGCUGCGGAAGAAGCCAAGAAGUUUGGAACGGUGAACAUUGUCCACCCUAAACUUGGAAGUUACACAAAAAUUCCAGACCCAAGCACCUGGAACCUCAACCCGGACGCCUCCUAUGUAUACUUCUGUGCAAACGAGACUGUGCACGGGGUGGAGUUUGACUUCGUACCUGACGUCAAGGGAGCGGUGCUGGUCUGUGACAUGUCCUCAAACUUCUUAUCCAGGCCGGUGGAUGUUUCCAAGUUUGGUGUGAUUUUCGCUGGUGCUCAGAAGAAUGUUGGCUCUGCCGGGGUGACGGUGGUGAUUGUCCGGGAUGACCUGCUGGGGUUCUCGCUCAGAGAGUGCCCAUCAGUCCUUGACUACAAAGUGCAGGCUGGGAACAACUCUUUGUAUAACACACCUCCGUGCUUCAGCAUCUACGUCAUGGGCAUGGUCCUGGAAUGGAUCAAGAACAACGGCGGGGCCGCAGCCAUGGAGAAGCUCAGCUCCAUCAAAUCCCAAAUGAUUUAUGAGAUCAUUGAUAAUUCUCAAGGAUUUUAUGUAUGCCCAGUGGAGCGCCAGAAUAGAAGCAGGAUGAACAUCCCAUUUCGCAUUGGCAACGCCAAAGGAGACGAAGCUUUGGAAAAGCGGUUUCUUGACAAGGCGGUAGAACUCAACAUGAUCUCCUUGAAGGGGCACAGGUCAGUGGGAGGCAUUCGUGCCUCUCUGUAUAACGCUGUCACAACCGAAGACGUUGAGAAGCUGGCGGCCUUCAUGAAGAAUUUCUUGGAGAUGCAUCAGCUGUGA
modifications: N1-methylpseudouridine
Cardiomyocytes (CM); PSAT1 modRNA plus AAV9-YAP1-shRNA, compared to controls, significantly lower rate than PSAT1 modRNA alone
  CM cell cycle inhibition under YAP1 inhibition: partially reversed
Cardiomyocytes (CM); compared to Luc modRNA
  CMs positive for Aurora B: significant increase
  CMs positive for BrdU (DNA synthesis): significant increase
  CMs positive for pH3: significant increase
[1]
  mice survival: significantly improved
